Assay results published in US20210122814A1 (SCHOLAR ROCK, published 2021).

Key:
[1] = target: T1, recombinant human GARP-proTGFβ1 complex (human, UniProt P01137 30-390; Q14392 20-627); assay: MSD-SET (solution equilibrium titration), % free antigen against Ab6 concentration
T1 construct: also called hGARP-proTGFβ1; hGARP
Description: (§1) MSD-SET assays were performed to measure affinities of the antibodies at equilibrium. Briefly, each test antibody was diluted 3-5 fold and samples were mixed with biotinylated antigen in a 48-well dish. The SET samples were equilibrated for 20-24 hours at room temperature. Meanwhile, a capture plate was coated with IgG (20 nM) and incubated overnight at 4° C. or 30 minutes at room temperature, followed by a blocking step with 5% BSA. After the capture plate was washed three times, SET samples were added and incubated for 150 seconds. The plate was washed once to remove unbound complexes. 250 ng/ml SA-Sulfotag was added then washed 3 times. 2× Read Buffer was added, and signals from the labeled bound complexes were read with the use of QuickPlex™ SQ 120 instrument.
(§2) As an example, MSD standard plates (MSD) were coated with a 20 nM solution of monoclonal antibody in PBS for 30 min at room temperature or overnight at 4° C. […] After 20-24 hours of equilibration, the antibody-coated plate was blocked with Blocking Buffer A (MSD) for 30 minutes at room temperature and washed with wash buffer (PBS, 0.1% BSA, 0.05% Tween-20) before adding the equilibrated antibody-antigen complexes to the plate for exactly 2.5 minutes. […] After washing with wash buffer, plates were read in MSD read buffer (MSD) using the MESO QuickPlex SQ 120 (MSD). […]

[2] = target: T2, recombinant human LRRC33-proTGFβ1 complex (human, UniProt P01137 30-390; Q86YC3 19-650); assay: as above
T2 construct: also called hLRRC33-proTGFβ1; hLRRC33
Description: as §1, §2

LTBP:proTGFβ1 = LTBP:proTGFβ1 (human); assay: cell-based or functional assay

T2 sequence (P01137 30-390 limits assumed, chain 1 of 2): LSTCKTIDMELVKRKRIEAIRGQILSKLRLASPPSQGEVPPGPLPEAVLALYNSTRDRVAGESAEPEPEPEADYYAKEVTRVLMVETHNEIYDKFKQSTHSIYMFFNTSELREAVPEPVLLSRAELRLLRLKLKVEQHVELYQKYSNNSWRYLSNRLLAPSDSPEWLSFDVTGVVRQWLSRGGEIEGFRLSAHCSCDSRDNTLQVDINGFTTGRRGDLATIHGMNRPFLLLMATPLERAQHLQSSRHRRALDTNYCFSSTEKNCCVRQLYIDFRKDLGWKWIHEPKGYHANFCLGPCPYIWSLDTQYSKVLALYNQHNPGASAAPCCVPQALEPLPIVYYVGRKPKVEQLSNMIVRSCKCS
T2 sequence (Q86YC3 other isoform, or with tags, fused parts or gaps limits assumed, chain 2 of 2): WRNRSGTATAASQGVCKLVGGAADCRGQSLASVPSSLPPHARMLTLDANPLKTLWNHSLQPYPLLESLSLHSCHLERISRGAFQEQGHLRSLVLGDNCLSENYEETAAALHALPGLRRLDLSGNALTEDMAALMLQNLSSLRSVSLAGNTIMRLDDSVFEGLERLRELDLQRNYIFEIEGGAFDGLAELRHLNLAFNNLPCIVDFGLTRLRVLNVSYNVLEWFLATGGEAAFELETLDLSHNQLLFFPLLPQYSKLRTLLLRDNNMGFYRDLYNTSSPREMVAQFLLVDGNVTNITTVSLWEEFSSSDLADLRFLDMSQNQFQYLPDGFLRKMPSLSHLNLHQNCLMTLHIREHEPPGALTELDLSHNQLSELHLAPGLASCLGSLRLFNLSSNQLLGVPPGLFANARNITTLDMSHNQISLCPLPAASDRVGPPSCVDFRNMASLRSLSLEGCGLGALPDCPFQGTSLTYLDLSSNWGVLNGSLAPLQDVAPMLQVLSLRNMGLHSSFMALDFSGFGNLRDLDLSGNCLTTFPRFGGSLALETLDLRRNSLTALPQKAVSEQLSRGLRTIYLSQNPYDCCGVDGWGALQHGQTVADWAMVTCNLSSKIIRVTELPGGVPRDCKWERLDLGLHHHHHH
T1 sequence (P01137 30-390, chain 1 of 2): as the sequence (P01137 30-390 limits assumed, chain 1 of 2) above
T1 sequence (Q14392 20-627, chain 2 of 2): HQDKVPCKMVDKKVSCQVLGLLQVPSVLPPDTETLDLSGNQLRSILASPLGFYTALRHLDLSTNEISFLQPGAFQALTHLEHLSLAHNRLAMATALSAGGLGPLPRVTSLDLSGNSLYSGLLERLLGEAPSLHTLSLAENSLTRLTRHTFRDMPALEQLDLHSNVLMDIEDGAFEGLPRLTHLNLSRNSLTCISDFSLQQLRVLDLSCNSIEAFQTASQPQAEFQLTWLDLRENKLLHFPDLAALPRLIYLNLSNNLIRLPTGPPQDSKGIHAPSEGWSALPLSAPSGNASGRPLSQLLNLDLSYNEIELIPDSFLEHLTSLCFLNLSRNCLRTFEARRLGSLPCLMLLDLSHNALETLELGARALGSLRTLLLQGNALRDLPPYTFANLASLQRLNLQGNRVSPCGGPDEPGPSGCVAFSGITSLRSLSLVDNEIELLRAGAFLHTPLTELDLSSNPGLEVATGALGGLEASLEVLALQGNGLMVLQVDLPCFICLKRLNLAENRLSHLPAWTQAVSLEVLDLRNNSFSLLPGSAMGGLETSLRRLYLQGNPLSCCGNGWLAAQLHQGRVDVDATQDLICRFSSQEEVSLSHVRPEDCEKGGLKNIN

B1: Ab6 (antibody, V domains shown)
VH: EVQLVESGGGLVQPGGSLRLSCTASGFTFSSFSMDWVRQAPGKGLEWVSYISPSADTIYYADSVKGRFTISRDNAKNTLYLQMNSLRAEDTAVYYCARGVLDYGDMLMPWGQGTLVTVSS
VL: DIQMTQSPSSLSASVGDRVTITCQASQDITNYLNWYQQKPGKAPKLLIYDASNLETGVPSRFSGSGSGTDFTFTISSLQPEDIATYYCQQADNHPPWTFGGGTKVEIKR
- IC50 (read off the curve) [1]: ~0.03 nM
- IC50 (read off the curve) [2]: ~0.06 nM
- IC50 (read off the curve) (LTBP:proTGFβ1): ~1 nM
